Reference: patent US20250277003A1

How the values were obtained:
[1] = target: BatCoV Anlong-103 spike RBD (BatCoV Anlong-103); experiment: bead flow cytometry
[2] = target: SARS-CoV-2 spike receptor-binding domain, wildtype (CoV-2 RBD WT) (SARS-CoV-2) (UniProt P0DTC2); experiment: bead flow cytometry

| Substance | gMFI [1] | gMFI [2] |
| --- | --- | --- |
| mAb CR3022 (antibody) | 12900 | 25800 |
| mAb S309 (antibody) | 69.3 | 8370 |
